Experimental data as given in a protein production outcome set (Wang et al. 2014).

Test: label from the status in PepcDB records

Sequence	protein production
MRMKRFLTIVQILLVVIIIIFGYKIVQTYIEDKQERANYEKLQQKFQMLMSKHQEHVRPQFESLEKINKDIVGWIKLSGTSLNYPVLQGKTNHDYLNLDFEREHRRKGSIFMDFRNELKNLNHNTILYGHHVGDNTMFDVLEDYLKQSFYEKHKIIEFDNKYGKYQLQVFSAYKTTTKDNYIRTDFENDQDYQQFLDETKRKSVINSDVNVTVKDKIMTLSTCEDAYSETTKRIVVVAKIIKVS	not failed
MIDVINNQAFHLHNDQISYICALLPNGQLGHLYFGPRLSLTKNDLAYLSQGSSPFAWMANFSDDQEFALGDAQQEYPVYGTGDFRQGSLSVTQDDMPIYPNFVFKDDQLTHTKTRDLHHPTSFGNPALTDVLTIHLEDKTAQLLLTLQYTIFADSAAIVRSATLTNQGTAPVMIQRMLSGVLNLPQGRYDVVHLSGNWAKERHIQTQPLTQGTFSVESLRGASSHEQNPFVALHAAGQPFAAGDTYGANLIYSGNFLDSTEVNEWDQTRLLTGIHPASFSWRLDPKTSFTTPETVFSYSSGGLAGLAQANQRFVARHIIDPQWRQKQRPVVLNSWEATYFDLNEKKLLKLAALGKQVGVDCFVLDDGWFGTRDNDLSSLGDWFTNKHKFPDGLGHFAQEIHAMGLQFGLWFEPEMVSPRSQFFQAHPNWVVRPKKGRISITRNQYVLDFSNPAVVNNIFEQMQKVITETNLDYVKWDLNRSITEAFSPYLEKIGHPQGEFFHRYVQGVYTLYQKLLTAFPHLLIEGCAGGGGRFDLGILFYSPQIWTSDDSDAIERLAIQSGMALAYPLSCMSNHVTAVPNEQVGRSTPLVTRFRVAAFGILGYELDLTKLDARTLATIKAQIAYYHALQPLVLKGDFSLLLPRQSNGQNQVAWLLSAHDRKHLVLGFFRVLADADSRTVQYMKVPLAKSDTPYWVNQHTGPISGDVLQRVGVRLPVQFNGANRAQAQLIGDYQSVLLTFDSVASLDHILEHHHHHH	failed
MTIYAAGLPAFLSYFSIGLVCFAIFSTIYTRLTPHEEVELIKAGNISAVVAFLGALIGFSLPLASAAAHSVSLPDYVIWAAIGLLVQVLAFYIAKLTMTDLHLKITEGNVAAGLWSGGIAVVIGTLNAACMAY	failed
MMPSVHRRSRPWDPEATPRIPEMALQPAAGARDLNPRQVESNRALSERLASVFRLWGYDEVSPPRVERLDTLMAGGAIASEDVVRLVADEPLGLRPEMTASIARAACTRLASRPRPLRLWASGTVFQSRAADEGGQCIEENLQCGVELFGVAPIEAEMELLSLLMAAVERLDFQAQHQPRLLMGHTGLMDLLLSPVPPVLRDAVRAALIQYDRLGLETIELEEGLRATLLSLLDCRGTPNEVLERLSSCFGAQALFDDLHRLCRQLQGPAAAQGVRLQLDPTFQPRFELYTGLVFQLVCDTHSAPVVVARGGRYDDLVRRCGAQPGQDFGAGFSLAIDPIRELLSDSSSNPTVAPQLMVAFSERSTLEAALERQRWWHQQGRSAVIELHPFSTRSLAEQQATDQGGFQLDWIDP	failed
MLIVNREEYSKSDFDLRLQAYEEMEQFQEAAGNRFALCLKDPFDIITLVFFLKEKKSSVLLIHEDTPKETAIEMAKRANCIGILYGENSDFTKLEAVNYLAEEPSLLQYSSGTTGEPKLIRRAWTEVDTEIKVYNEALNCDIDEVPIVMAPVSHSYGLICGTLSAITRGSKPIIITNKNPKFALNIVRNTEKHIVYAVPLMLHIMGSFPQGTFQFHKIMTSGAPLPEALFYKLKETTTYMMQQYGCSEAGCISICHDMKSHLDLGNPLPHASISIGSDENAPEEIIVKMNDKEIFTKDLGYKSERGLHFMGRMDDVINVSGLKVFPIEVEETMLRLEGVQEAIVYRGKHPVMGEIVKAKVISHIDPVQIREWCMQHLPSYKVPHEIESVTEIPKNKTGKVSRKLLEMGEVTT	failed
MKILYPTDFSEVSQKALTECVPSIILGIGEGSELILLHVVDITASEIGALELAEVDKEELNNLASQLREKGIKVKPIVRIGIPSLEISEVAKEENVDLIIIPSKGENILRQMLLGSTASNLARITHKPVLLLRYEVENGEIKSLQDCSRIFEKPLVALDLSKCSEKIIETIKDLPGVREAVLFHVVDYGKVEELENNIKNAKEKLSKYGKLLPWKTKIEVQAGIASKGIIGAAIDNNVTLVVIGKKGRSVLKDLLLGSTAERVIRDCKLPTLLIPCE	failed
MGAMHVLTLDLAPVTPKDAPLLHRVFHLSPSYFALIGMELPTLEDVVRDLQTLEVDPRRRAFLLFLGQEPVGYLDAKLGYPEAEDATLSLLLIREDHQGRGLGRQALERFAAGLDGVRRLYAVVYGHNPKAKAFFQAQGFRYVKDGGPTLTWYVRPL	not failed
MDRIVEIEKYSFDETYETSLRPSNFDGYIGQESIKKNLNVFIAAAKKRNECLDHILFSGPAGLGKTTLANIISYEMSANIKTTAAPMIEKSGDLAAILTNLSEGDILFIDEIHRLSPAIEEVLYPAMEDYRLDIIIGSGPAAQTIKIDLPKFTLIGATTRAGMLSNPLRDRFGMQFRLEFYKDSELALILQKAALKLNKTCEEKAALEIAKRSRSTPRIALRLLKRVRDFADVNDEEIITEKRANEALNSLGVNELGFDAMDLRYLELLTAAKQKPIGLASIAAALSEDENTIEDVIEPYLLANGYIERTAKGRIASAKSYSALKLNYEKTLFEE	not failed
MNVNKPTTEKKLIDLNNDIIHNFDVSIVMSFYKRYTEFRKVLPHNAPYLQRNGIEVIIVLDDPDEKSELLMLLQNYPFINWKLIINERKHAPRNHASVLNVGLKHATKKYILQIDPEVEFLTDIIWQMRDAIEKYPMHYILAMMAYVPYEQELTENNIKELDFIPWGNLMVERNHLYKLHGYDETFITWGGEDNNMRARLDMSGIKKFILPEAKTIHREKNYDPNERSKRINKHSISDWRKMNYPSEAIANKDIWGSEFNKVIYDWQDNQYAKDLCYTYLQQFIGFEIRHPAAFRKRHKKIVLCQAYNEEKLIEGFLTNMANYFDGIILLDDESTDRTWDLAIHDKIILKVKKKRSGFNDLENRNILLDLSAFFQSEWFCFMDIDERFDERFTNFSEFENNKEIHVVSFRGVYLWNDEQSYKGDIPNSNKGILTVYRMFRPIGHTHINTHKKLHFIATPYFTNTWQSNILFKDYGSMKENDRIRKYERYIQEDQQKDMSSGYDYLLNSENLYQLDKIEEYLEHHHHHH	failed
MLSYYGRLSSEVYDIDKPIDHSFRDVEFYIDRLNLCRGHILEPATGTGRVLVPLLEKGFKVDGFDSSKDMLNICRDNCRKKGLNPKLFEAKMESFIQDTRYDAIIVPAGTFLLLHQRADSIRALQNFHKHLCSGGRLIIDILMQTDFSTGTVSTRTWVCSNGDLITLESKVVEVDYINQYTVSHNRYEKWREGVLIQTELERFPLRWYGLEEFKLILESTGFKDIVISSDYKFGQYPSNVKDVITFEAVAIN	failed
MVKMIEQLKRSFAVAKKDMLIFYLKGPVIIMGLIFPFFLFLAFFIGRNLEKAQLFTALISMTAFFTSTAVGPTIIPWECRGRTFERLITAPVSLTTVLLGDLQASFYFGTAITFIISTVAIFILSIRPNLQIFLVATILAILTFSAMTILMSSYPPTDVPADIMMLSSLVKFSLLFISGIFVPLKDLPKYARWISYASPLTYYVDALRNSLGDGCLPLWIDFGMLALFGILFFLSGVAIHKKVLERRFT	failed
MTRPEASGPPDATRLGHLLGPHGVQGGIKLYVLGDPAQVLALKRVYVESRGWLSLRRAEGMPPNLVLYLAGVSSREGAEELRGLQVYATDAELPDLEEGTFYYHDLRGLEVYGAGGERLGTVSDVMDAGHQDLLVVDYGGGTSFVPLQAPYVEVPLAGGKPGAVHLTADAPAGLIGPEPGEEDGAAESLEHHHHHH	not failed
MTRPYSLTRYAWLSIFVAIFTMAVKAAAYRVTGSVGLLSDALESIVNLSAAVVALAMLRLSAQPADARHHFGHGKAEYFASGFEGVLILVAAGAILFAAWDRYLHPHELAELDLGLGLSVAAAVVNGLVGWLLVSVGRKAGSIVLEADGKHLLTDVWTSIGVVCGVAAAGLTGWHDFDPGVAALVGLNIVWTGAGLIRRTIAGLLDASLPLEENLKIRGILETFRERGVGFHDLRTRQSGAHRFMSVHLLVPGAWTVQAAHDLAEEIEAELGGALANLTVVTHIEPIEDPASFGHHEPFPETAPEVTNPHPPQTARPLRLKIASVAGAALLLGGGVAGVVVSGVWLDLALAAVLFGFVLILAVQRRGGRQRKAGRQ	failed
MLSLAYGMVALIGYSVSFDKTTFRLLRGESNLFYTLAKWENNKLHVELPENIDKQSPTMTLIYDENGQLLWAQRDVPWLMKMIQPDWLKSNGFHEIEADVNDTSLLLSGDHSIQQQLQEVREDDDDAEMTHSVAVNVYPATSRMPKLTIVVVDTIPVELKSSYMVWSWFIYVLSANLLLVIPLLWVAAWWSLRPIEALAKEVRELEEHNRELLNPATTRELTSLVRNLNRLLKSERERYDKYRTTLTDLTHSLKTPLAVLQSTLRSLRSEKMSVSDAEPVMLEQISRISQQIGYYLHRASMHGGTLLSRELHPVAPLLDNLTSALNKVYQRKGVNISLDISPEISFVGEQNDFVEVMGNVLDNACKYCLEFVEISARQTDEHLYIVVEDDGPGIPLSKREVIFDRGQRVDTLRPGQGVGLAVAREITKQYEGKIVAGESMLGGARMEVIFGRQHSTPKDE	failed
QNRIDMAMMRGRCGLWDWNMASGRVYWSRAMYEMLGYIPQDALLSISQITAIINPNDANFFDLAQELMSGKKKHIDINVPMRHADGHYVWMRIRAEVTDEEELHLVGIAFDIS	failed
MGVFLDKSIKDVVDGLNVRYFLPDIQREYVWLKKADEKKIEQLFDSILRGYPIGSFLFWKLQKEDIAKSDEQDSDKLNFQLYQFITNYDVRKPHNEKIRIEQINRDDLYIVANSV	failed
MRAFPFFRPVLAQLMKHRVAQESTRRWLDRIIQIIKYAYCQKLRRHFCQATLWKMIQLIVNGQSQLVPSPDSGTDSGTTNDARLNIRQLLEHMGLQGKRIAVERNGEIVPRSQFDQPMLASGDKLEIVVAVGGGLEHHHHHH	failed
MALGHRCRRFGTDKITSRPLRRQPQENPMNIKQLITAALIASAAFATQAAPQKPVSAAQTAQHSAVWIDVRSEQEFSEGHLHNAVNIPVDQIVRRIYEAAPDKDTPVNLYCRSGRRAEAALQELKKAGYTNVANHGGYEDLLKKGMK	failed
MSLQLRLALNQIDSTVGDIAGNAEAILRWTRHSAEQGAHLVAFPEMALTGYPVEDLALRSSFVEASRTALRELAARLAEEGFGELPVLVGYLDRSESAQPKYGQPAGAPRNAAAVLHRGRVALTFAKHHLPNYGVFDEFRYFVPGDTMPIVRLHGVDIALAICEDLWQDGGRVPAARSAGAGLLLSVNASPYERDKDDTRLELVRKRAQEAGCTTAYLAMIGGQDELVFDGDSIVVDRDGEVVARAPQFSEGCVVLDLDLPAAEAEPPTGVVDDGLRIDRLVISEEPLPAYEAELAGGYADRLDADEEVYSALVVGLRAYVAKNGFRSVLIGLSGGIDSALVAAIACDALGAQNVYGVSMPSKYSSDHSKGDAAELARRTGLNFRTVSIEPMFDAYMASLGLTGLAEENLQSRLRGTTLMAISNQEGHIVLAPGNKSELAVGYSTLYGDSVGAYGPIKDVYKTSIFRLAEWRNRAAAERGQTPPIPEASITKPPSAELRPGQVDTDSLPDYPVLDAILELYVDRDTGADAIVAAGYDRELVVKTLRMVDTAEYKRRQYPPGTKISAKGFGKDRRLPITNRWREGHHHHHH	not failed
MSTLQRRRVNRADSGDTSSIHSSANNTKGDKIANIAVDGDDDNGTNKKIAYDPEESKLRDNINIPTLTLMEEVLLMGLRDREGYLSFWNDSISYALRGCIIIELALRGKIRILDDSARKRFDLSERLIEVIDSSKTGEVLLDETLQLMKNDEPLSISNWIDLLSGETWNLLKINYQLKQVRERLAKGLVDKGVLRTEMKNFFLFDMATHPIADASCKEAIKRRVLSVLVSRNMELSYNEYFPETTSFKIIRTLALICGSYGANVLENVLTTLEYEKRDKAISRAEEIMAQFSQYPFDLEKETELGVSVNLNKEVKEEIENNPGHDLQLEVIAGVFEVFSRMDMLL	failed
